Measured values reported in patent US20220340666A1 (NEW YORK UNIVERSITY, published 2022).
Substitutions are numbered along the chain they refer to. Like-named read-outs stand apart in the source and are kept apart here. Each block holds one binder with its values, some of them ahead of it.

How the values were obtained:
[1] = target: T1, human Galectin-9 CRD2 W309K mutant, biotinylated (human, UniProt O00182 218-355, biotinylated (Avitag)); test: phage ELISA, phage-displayed Fab
T1 construct: also called W309K Galectin-9 CRD2 mutant; not shown: tags of the pHBT vector as for wild-type CRD2
T1 sequence (O00182 218-355 W309K): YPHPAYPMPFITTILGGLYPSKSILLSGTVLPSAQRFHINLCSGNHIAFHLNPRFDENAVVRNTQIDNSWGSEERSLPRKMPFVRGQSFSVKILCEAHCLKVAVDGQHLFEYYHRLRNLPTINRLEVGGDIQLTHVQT
Experimental: (§1) FIG. 13 is a graph showing a binding characterization of G9.2 Fab clone for wild-type Galectin-9 CRD2 or the […] mutant using phage ELISA. Binding of Fab clones to human Galectin-9 CRD2 assayed using phage ELISA.
(§2) Potential additional epitopes were explored using additional clones that bind to Galectin-9 CRD2. A phage display library selection using a modified scheme so as to enrich clones that bind to an epitope that is distinct from that of G9.2-17 was performed.

[2] = target: T2, human Galectin-9 CRD2 (residues 218-355), biotinylated (human, UniProt O00182 218-355, biotinylated in vitro with BirA (Avitag)); test: phage ELISA, phage-displayed Fab; also on CRD2 pre-incubated with G9.2-17 IgG
T2 construct: also called wild type human Galectin-9 CRD2; not shown: hexahistidine tag, Avitag and TEV cleavage site upstream of the cloned gene (pHBT vector)
T2 sequence (O00182 218-355 limits assumed): as the sequence (O00182 218-355 W309K) above, with K92W counted along it
Experimental: as §1, §2

[3] = target: T2, human Galectin-9 CRD2 (residues …); test: phage ELISA, phage-displayed Fab
Experimental: as §1, §2

[4] = target: T3, human Galectin-9 CRD1 (residues 1-148), biotinylated (human, UniProt O00182 1-148, biotinylated in vitro with BirA (Avitag)); test: bead-based binding assay, purified Fab (FIG. 5)
T3 construct: Made as GST fusion, GST cleaved off with thrombin, gel filtered, biotinylated; not shown: Avitag upstream of the cloned gene (pGEX vector), left after thrombin cleavage from GST
T3 sequence (O00182 1-148): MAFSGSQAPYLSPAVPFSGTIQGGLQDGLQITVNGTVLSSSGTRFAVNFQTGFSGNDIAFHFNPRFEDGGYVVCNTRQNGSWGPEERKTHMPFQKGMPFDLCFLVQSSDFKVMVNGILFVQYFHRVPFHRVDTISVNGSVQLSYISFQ
Experimental: (§3) The affinities of the antibodies were assessed using a bead-based assay as previously described (Nishikori et al., J Mol Biol, 2012, 424, 391-399) and surface plasmon resonance (SPR). In the bead-based assay, a biotinylated protein (either a Galectin-9 sample or a Fab sample) was immobilized on streptavidin-coated Dynabeads M280 via the biotin-streptavidin interaction. After blocking the excess biotin-binding sites on the beads using unconjugated biotin, binding titration was performed by incubating the second component (i.e., Fab for immobilized Galectin-9 or vice versa), followed by quantification using a dye-labeled neutravidin (ThermoFisher) and flow cytometry analysis. In experiments where the second component is an IgG, a dye-labeled anti-human IgG or anti-mouse IgG antibody was used for detection.

[5] = target: T2, human Galectin-9 CRD2 (residues …); test: SPR, Fab over CRD2 on Avicap chip (OneStep)
From the text: FIG. 12 contains charts showing surface plasmon resonance analyses of Fab G9.2-17 (top) and Fab G9.2.17mut6 (bottom) binding to the CRD2 of human (left) and mouse (right) Galectin-9. Human or mouse Galectin-9 CRD2 was immobilized on an Avicap chip preloaded with neutravidin on a Pall ForteBio Pioneer instrument. Fab samples were then flowed using the OneStep method. The binding and dissociation phases of the experiments are marked in the top panels.
In SPR experiments, a biotinylated Galectin-9 sample was immobilized on an Avicap chip (Pall ForteBio) that had been preloaded with neutravidin (ThermoFisher). Antibody samples were flowed using the OneStep method on a Pioneer SPR instrument (Pall ForteBio) and the results are provided in FIG. 6.

[6] = target: T3, human Galectin-9 CRD1 (residues 1-148), …; test: bead-based binding assay, flow cytometry
Experimental: as §3

[7] = target: T3, human Galectin-9 CRD1 (residues 1-148), …; test: bead-based binding assay, flow cytometry; remark: listed apart in the source
Experimental: as §3

[8] = target: T3, human Galectin-9 CRD1 (residues 1-148), …; test: bead-based binding assay, flow cytometry; remark: listed apart in the source
Experimental: as §3

[9] = target: T2, human Galectin-9 CRD2 (residues …); test: bead-based binding assay

binding result [1]: binds
binding result [2]: binds
B1: G9.2-25 Fab (Fab, V domains shown)
VH: EVQLVESGGGLVQPGGSLRLSCAASGFTLSSSSIHWVRQAPGKGLEWVASIYSSYGSTSYADSVKGRFTISADTSKNTAYLQMNSLRAEDTAVYYCARQYYTYFEWYMGWGYALDYWGQGTLVTVSS
VL: DIQMTQSPSSLSASVGDRVTITCRASQSVSSAVAWYQQKPGKAPKLLIYSASSLYSGVPSRFSGSRSGTDFTLTISSLQPEDFATYYCQQSYVYYPFTFGQGTKVEIKR

binding result [3]: binds
B2: G9.2-15 Fab (Fab, V domains shown)
VH: EVQLVESGGGLVQPGGSLRLSCAASGFTVSSSSIHWVRQAPGKGLEWVASIYSSSGYTSYADSVKGRFTISADTSKNTAYLQMNSLRAEDTAVYYCARNVENYPYWAWPWGYYGAIDYWGQGTLVTVSS
VL: DIQMTQSPSSLSASVGDRVTITCRASQSVSSAVAWYQQKPGKAPKLLIYSASSLYSGVPSRFSGSRSGTDFTLTISSLQPEDFATYYCQQSSWGLITFGQGTKVEIKR
notes: Avitag at the C-terminus of the heavy chain, biotinylated when required; also called Fab G9.2-15

binding result [1]: binds
binding result [2]: binds
B4: G9.2-24 Fab (Fab, V domains shown)
VH: EVQLVESGGGLVQPGGSLRLSCAASGFTVYSSSIHWVRQAPGKGLEWVASIYSSYGYTSYADSVKGRFTISADTSKNTAYLQMNSLRAEDTAVYYCARSYSSETHYGWAMDYWGQGTLVTVSS
VL: B2 VL with S91W, W93Q, G94S, L95P, I96V

binding result [4]: binds
B5: G9.1-6 Fab (Fab, V domains shown)
VH: EVQLVESGGGLVQPGGSLRLSCAASGFTLSSSSIHWVRQAPGKGLEWVASIYSSYGSTSYADSVKGRFTISADTSKNTAYLQMNSLRAEDTAVYYCARSSHWYMYWSYWGWYIGMDYWGQGTLVTVSS
VL: B2 VL with S91Y, S92H, W93S, G94S, I96F
notes: Avitag at the C-terminus of the heavy chain, biotinylated when required

binding result [5]: binds
B6: G9.2-17mut6 Fab (Fab, V domains shown)
VH: EVQLVESGGGLVQPGGSLRLSCAASGFTVSSSSIHWVRQAPGKGLEWVAYISSSSGYTYYADSVKGRFTISADTSKNTAYLQMNSLRAEDTAVYYCARYWSYPSWSPYRGMDYWGQGTLVTVSS
VL: B2 VL with W93T, G94D, L95P
notes: Purified Fab; point mutant of G9.2-17 in CDR-H3; also called Fab G9.2-17mut6; G9.2-17m6

binding result [1]: binds
binding result [2]: binds
B7: G9.2-26 Fab (Fab, V domains shown)
VH: EVQLVESGGGLVQPGGSLRLSCAASGFTVSSSSIHWVRQAPGKGLEWVAYISSYSGSTYYADSVKGRFTISADTSKNTAYLQMNSLRAEDTAVYYCARSSALYWMDFSYSALDYWGQGTLVTVSS
VL: DIQMTQSPSSLSASVGDRVTITCRASQSVSSAVAWYQQKPGKAPKLLIYSASSLYSGVPSRFSGSRSGTDFTLTISSLQPEDFATYYCQQGGWYYGPITFGQGTKVEIKR

Further lines, the binder ahead of its results:

B3: G9.2-17 Fab (Fab, V domains shown)
VH: B6 VH with S106W
VL: B2 VL with W93T, G94D, L95P
notes: Avitag at the C-terminus of the heavy chain, biotinylated when required; also called Fab G9.2-17
binding result [3]: binds

B8: G9.1-8 Fab (Fab, V domains shown)
VH: EVQLVESGGGLVQPGGSLRLSCAASGFTVSSSSIHWVRQAPGKGLEWVAYIYPYSGYTSYADSVKGRFTISADTSKNTAYLQMNSLRAEDTAVYYCARYSTYSWGGIGKWVWGMDYWGQGTLVTVSS
VL: B7 VL with G91S, G92Y, W93Y, Y94D, Y95S, G96N
notes: Avitag at the C-terminus of the heavy chain, biotinylated when required; also called G9.1-8 WT Fab
Kd [6]: 0.45 nM
Kd [7]: 2.13 nM

B9: G9.1-8 WT mIgG1 (antibody, V domains shown)
VH: B8 VH
VL: B7 VL with G91S, G92Y, W93Y, Y94D, Y95S, G96N
Kd [6]: 2.4 nM
Kd [8]: 0.63 nM

B10: G9.1-8m14 mIgG2a (antibody, V domains shown)
VH: EVQLVESGGGLVQPGGSLRLSCAASGFTVSSSSIHWVRQAPGKGLEWVAYIYPYSSSSSYADSVKGRFTISADTSKNTAYLQMNSLRAEDTAVYYCARYSTYKWVWGMDYWGQGTLVTVSS
VL: B7 VL with G91S, G92Y, W93Y, Y94D, Y95S, G96N
notes: also called G9.1-8mut14
Kd [8]: 2.01 nM
binding result [9]: no binding

B11: G9.1-8m12 mIgG2a (antibody, V domains shown)
VH: EVQLVESGGGLVQPGGSLRLSCAASGFTVSSSSIHWVRQAPGKGLEWVAYIYPYSSSSSYADSVKGRFTISADTSKNTAYLQMNSLRAEDTAVYYCARYSTYSSSKWVWGMDYWGQGTLVTVSS
VL: B7 VL with G91S, G92Y, W93Y, Y94D, Y95S, G96N
notes: also called G9.1-8mut12
Kd [8]: 0.32 nM
binding result [9]: no binding

B12: G9.1-8m13 mIgG2a (antibody, V domains shown)
VH: EVQLVESGGGLVQPGGSLRLSCAASGFTVSSSSIHWVRQAPGKGLEWVAYIYPYSSSSSYADSVKGRFTISADTSKNTAYLQMNSLRAEDTAVYYCARYSTYSSKWVWGMDYWGQGTLVTVSS
VL: B7 VL with G91S, G92Y, W93Y, Y94D, Y95S, G96N
notes: also called G9.1-8mut13
Kd [8]: 0.3 nM
binding result [9]: no binding
